This assay concerns the target microtubules assembled from porcine brain tubulin (porcine) (UniProt P02550).

Sequence of microtubules assembled from porcine brain tubulin (porcine) (P02550 whole entry, chain 1 of 2): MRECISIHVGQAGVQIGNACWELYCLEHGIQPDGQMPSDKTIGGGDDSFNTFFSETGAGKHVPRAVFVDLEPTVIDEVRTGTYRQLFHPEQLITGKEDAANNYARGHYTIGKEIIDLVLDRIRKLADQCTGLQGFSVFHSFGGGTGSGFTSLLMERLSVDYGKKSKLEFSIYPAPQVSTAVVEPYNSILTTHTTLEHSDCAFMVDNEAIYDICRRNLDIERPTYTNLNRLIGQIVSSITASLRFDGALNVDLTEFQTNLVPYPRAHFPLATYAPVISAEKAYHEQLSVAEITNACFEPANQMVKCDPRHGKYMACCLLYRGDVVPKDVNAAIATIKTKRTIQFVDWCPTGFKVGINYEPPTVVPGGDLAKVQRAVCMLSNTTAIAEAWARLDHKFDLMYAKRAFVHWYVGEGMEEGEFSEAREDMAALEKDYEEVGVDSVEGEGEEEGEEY
Sequence of microtubules assembled from porcine brain tubulin (porcine) (P02554 whole entry, chain 2 of 2, further chain): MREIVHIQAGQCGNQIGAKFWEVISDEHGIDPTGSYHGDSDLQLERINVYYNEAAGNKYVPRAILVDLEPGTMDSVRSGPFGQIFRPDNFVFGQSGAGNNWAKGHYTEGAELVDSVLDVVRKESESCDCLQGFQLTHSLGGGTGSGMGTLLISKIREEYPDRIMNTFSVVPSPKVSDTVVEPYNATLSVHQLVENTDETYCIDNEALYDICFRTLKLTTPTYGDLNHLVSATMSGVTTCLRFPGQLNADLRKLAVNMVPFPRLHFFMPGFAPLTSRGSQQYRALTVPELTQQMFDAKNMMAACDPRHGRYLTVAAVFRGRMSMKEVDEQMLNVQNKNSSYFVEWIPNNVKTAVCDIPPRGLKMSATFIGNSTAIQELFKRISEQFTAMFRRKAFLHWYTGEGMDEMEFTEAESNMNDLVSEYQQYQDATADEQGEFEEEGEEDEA

Take “TTLL6 with R415 and R418 mutated to alanine (from UniProt A4Q9E8 51-502) (enzyme)”: the glutamylation activity with taxol-stabilized MTs, decrease against WT stood at 47 % decrease.
As for “TTLL6 with R403 and R407 mutated to alanine (from UniProt A4Q9E8 51-502) (enzyme)”, the glutamylation activity with taxol-stabilized MTs, normalized to WT was 55 % of WT.

(Values after publication PMC11529724.)
